What all share (conditions): EMSA: 1 nM probe, 1 mM Tris-HCl pH 7.5, 0.1 mM EDTA, 0.2 mM DTT, 5 mM MgCl2, 10 mM KCl, 20 min 37 C; PhoP with 0.1 M acetyl phosphate; footprinting DNase I …
The target of series [1] is T1, PhoP (Escherichia coli O157:H7 (EHEC; strain EDL933?)) (UniProt Q8X738).
T1 sequence: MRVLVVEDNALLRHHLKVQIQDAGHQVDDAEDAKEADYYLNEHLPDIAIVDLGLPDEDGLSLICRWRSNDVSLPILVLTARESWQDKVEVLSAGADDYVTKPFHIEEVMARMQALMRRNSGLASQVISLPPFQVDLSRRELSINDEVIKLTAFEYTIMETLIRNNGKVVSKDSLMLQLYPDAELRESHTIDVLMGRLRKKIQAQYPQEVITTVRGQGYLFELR
Nature of the series: EMSA. Background: Mobility shift assays separate free from complexed probe on a gel.

The subject of series [2] is T2, LmiA (Z4267) (Escherichia coli O157:H7 (EHEC; strain EDL933?)), ORF:92023632.
T2 sequence: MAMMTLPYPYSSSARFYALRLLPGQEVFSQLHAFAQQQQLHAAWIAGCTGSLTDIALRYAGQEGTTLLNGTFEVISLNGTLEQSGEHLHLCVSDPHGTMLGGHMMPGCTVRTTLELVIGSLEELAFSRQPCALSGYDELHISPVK
Description: EMSA.

For series [3], the target named is T1, PhoP (Escherichia coli O157:H7 (EHEC; strain EDL933?)). Description: competition.

For the sequence “AATATGGGTAGGGCAATGTCATCATTGGAGTACTCCGAAACTCGGACGTATTACGGATAATATCGACGCTGCATCAGTCATATTCTGATATAAGTCAGGGTTTGTGACGGCACAACGAAAAGATTTTGCTACGCTTATTCGTGATTCTGCAAAGTGGAATAAATTCCACAGGGGCGGGGCTGAGTTGGTGACGAGGGTCAGATAATTGTTTTCTTTGACTGGAC (double strand) [PlmiA-2]”, in series [1], the binding result was “no binding”.

“AGATTCATCTGCAGGCTCTGAAGTAAGTATACGTGTGAATATTATTGCTTGAAAAAGCGTATTGGATAATATATACAGTATATGTACTTTATGTACATTGCAACTATTTAAATAATATAATAGTTGCCTATGGGATAATTTGGTTATTTATAACCAGGTAAATGTCTAAATTAGACAAAAGGAGAAAGATCAATGGAAGCAGCAAATTTAAGTCCTTCTGGTGCAGTAATG (double strand) [PLEE2/3]”: in series [2], the binding result is “no binding”.

Regarding “CATTAGCCATTGGAAACTCACGTAATCATTAATTATGAATATTCCATTAAATAGTACTGTACAACAGCTTCCTTTCTACTCTATTCTTAGACGATGTAAGTTCACCATATTTTTTCTCATTGTTCAACCACCAGGATGAATAAAATTTAAAAATGTTATCCTCATATAAAATAAAACTTCTCAATGGTGCGATGCG (double strand) [PLEE4]”, the binding entry in series [2] is “no binding”.

As to “GTCCAGTCAAAGAAAACAATTATCTCAGCCCCGCCCCTGTGGAATTTATTCCACTTTGCAGAATCACGAATAAGCGTAGCAAAATCTTTTCGTTGTGCCGTCACAAACCCTGACTTATATCAGAATATGACTGATGCAGCGTCGATATTATCCGTAATACGTCCGAGTTTCGGAGTACTCCAATGATGACATTGCCCTACCCATATT (double strand) [PlmiA-1]”, the binding result in series [1] is listed as “no binding”.

In the case of “GTCCAGTCAAAGAAAACAATTATCTGACTTACGTCACGTTTTCAGCCCCGCCCCTGTGGAATTTATTCCACTTTGCAGAATCACGAATAAGCGTAGCAAAATCTTTTCGTTGTGCCGTCACAAACCCTGACTTATATCAGAATATGACTGATGCAGCGTCGATATTATCCGTAATACGTCCGAGTTTCGGAGTACTCCAATGATGACATTGCCCTACCCATATT (double strand) [PlmiA unlabeled competitor]”, in series [3], the binding result is “binds”.

Turning to “GTCCAGTCAAAGAAAACAATTATCTGACTTACGTCACGTTTTCAGCCCCGCCCCTGTGGAATTTATTCCACTTTGCAGAATCACGAATAAGCGTAGCAAAATCTTTTCGTTGTGCCGTCACAAACCCTGACTTATATCAGAATATGACTGATGCAGCGTCGATATTATCCGTAATACGTCCGAGTTTCGGAGTACTCCAATGATGACATTGCCCTACCCATATT (double strand) [PlmiA]”, in series [1], the binding result is “binds”.
